This data set deals with ABCA1 (Homo sapiens, UniProt O95477). In words: ABCA1-mediated cholesterol efflux from BHK-ABCA1 cells, acceptor in media. Format: cell-based. On the set-up: expressed in transfected cells; host or cells: BHK cells, stably transfected, induced with 10 nM mifepristone (gift of J. F. Oram). Particulars: BHK-ABCA1 induced with mifepristone, 4 h, 37°C, mean ± SD. The text has this: BHK cells stably transfected with an ABCA1 or ABCG1 expression vector that is mifepristone inducible and cells transfected with the same vector lacking the ABCA1 cDNA insert (mutant or mock-transfected) were generously provided by the late Dr. John F. Oram from the Department of Medicine, University of Washington, and were characterized and cultured as previously described. […] Mouse-derived peritoneal macrophages J774 were purchased from American Tissue Culture Collection (ATCC TIB-67, Cederlane, Burlington, Canada). For induction of ABCA1, BHK cells were incubated for 18–20 h with 10 nM mifepristone. J774 macrophages were stimulated with 0.3 mM Cpt-cAMP 8-(4-Chlorophenylthio)-cyclic adenosine monophosphate (Sigma). All BHK and J774 macrophages cells were respectively grown and maintained in DMEM and RPMI containing 10% fetal serum until experimental treatment. Studies were carried out on standard 24-well plates (150,000 cells/well) unless stated otherwise
Chain of ABCA1 (O95477 whole entry): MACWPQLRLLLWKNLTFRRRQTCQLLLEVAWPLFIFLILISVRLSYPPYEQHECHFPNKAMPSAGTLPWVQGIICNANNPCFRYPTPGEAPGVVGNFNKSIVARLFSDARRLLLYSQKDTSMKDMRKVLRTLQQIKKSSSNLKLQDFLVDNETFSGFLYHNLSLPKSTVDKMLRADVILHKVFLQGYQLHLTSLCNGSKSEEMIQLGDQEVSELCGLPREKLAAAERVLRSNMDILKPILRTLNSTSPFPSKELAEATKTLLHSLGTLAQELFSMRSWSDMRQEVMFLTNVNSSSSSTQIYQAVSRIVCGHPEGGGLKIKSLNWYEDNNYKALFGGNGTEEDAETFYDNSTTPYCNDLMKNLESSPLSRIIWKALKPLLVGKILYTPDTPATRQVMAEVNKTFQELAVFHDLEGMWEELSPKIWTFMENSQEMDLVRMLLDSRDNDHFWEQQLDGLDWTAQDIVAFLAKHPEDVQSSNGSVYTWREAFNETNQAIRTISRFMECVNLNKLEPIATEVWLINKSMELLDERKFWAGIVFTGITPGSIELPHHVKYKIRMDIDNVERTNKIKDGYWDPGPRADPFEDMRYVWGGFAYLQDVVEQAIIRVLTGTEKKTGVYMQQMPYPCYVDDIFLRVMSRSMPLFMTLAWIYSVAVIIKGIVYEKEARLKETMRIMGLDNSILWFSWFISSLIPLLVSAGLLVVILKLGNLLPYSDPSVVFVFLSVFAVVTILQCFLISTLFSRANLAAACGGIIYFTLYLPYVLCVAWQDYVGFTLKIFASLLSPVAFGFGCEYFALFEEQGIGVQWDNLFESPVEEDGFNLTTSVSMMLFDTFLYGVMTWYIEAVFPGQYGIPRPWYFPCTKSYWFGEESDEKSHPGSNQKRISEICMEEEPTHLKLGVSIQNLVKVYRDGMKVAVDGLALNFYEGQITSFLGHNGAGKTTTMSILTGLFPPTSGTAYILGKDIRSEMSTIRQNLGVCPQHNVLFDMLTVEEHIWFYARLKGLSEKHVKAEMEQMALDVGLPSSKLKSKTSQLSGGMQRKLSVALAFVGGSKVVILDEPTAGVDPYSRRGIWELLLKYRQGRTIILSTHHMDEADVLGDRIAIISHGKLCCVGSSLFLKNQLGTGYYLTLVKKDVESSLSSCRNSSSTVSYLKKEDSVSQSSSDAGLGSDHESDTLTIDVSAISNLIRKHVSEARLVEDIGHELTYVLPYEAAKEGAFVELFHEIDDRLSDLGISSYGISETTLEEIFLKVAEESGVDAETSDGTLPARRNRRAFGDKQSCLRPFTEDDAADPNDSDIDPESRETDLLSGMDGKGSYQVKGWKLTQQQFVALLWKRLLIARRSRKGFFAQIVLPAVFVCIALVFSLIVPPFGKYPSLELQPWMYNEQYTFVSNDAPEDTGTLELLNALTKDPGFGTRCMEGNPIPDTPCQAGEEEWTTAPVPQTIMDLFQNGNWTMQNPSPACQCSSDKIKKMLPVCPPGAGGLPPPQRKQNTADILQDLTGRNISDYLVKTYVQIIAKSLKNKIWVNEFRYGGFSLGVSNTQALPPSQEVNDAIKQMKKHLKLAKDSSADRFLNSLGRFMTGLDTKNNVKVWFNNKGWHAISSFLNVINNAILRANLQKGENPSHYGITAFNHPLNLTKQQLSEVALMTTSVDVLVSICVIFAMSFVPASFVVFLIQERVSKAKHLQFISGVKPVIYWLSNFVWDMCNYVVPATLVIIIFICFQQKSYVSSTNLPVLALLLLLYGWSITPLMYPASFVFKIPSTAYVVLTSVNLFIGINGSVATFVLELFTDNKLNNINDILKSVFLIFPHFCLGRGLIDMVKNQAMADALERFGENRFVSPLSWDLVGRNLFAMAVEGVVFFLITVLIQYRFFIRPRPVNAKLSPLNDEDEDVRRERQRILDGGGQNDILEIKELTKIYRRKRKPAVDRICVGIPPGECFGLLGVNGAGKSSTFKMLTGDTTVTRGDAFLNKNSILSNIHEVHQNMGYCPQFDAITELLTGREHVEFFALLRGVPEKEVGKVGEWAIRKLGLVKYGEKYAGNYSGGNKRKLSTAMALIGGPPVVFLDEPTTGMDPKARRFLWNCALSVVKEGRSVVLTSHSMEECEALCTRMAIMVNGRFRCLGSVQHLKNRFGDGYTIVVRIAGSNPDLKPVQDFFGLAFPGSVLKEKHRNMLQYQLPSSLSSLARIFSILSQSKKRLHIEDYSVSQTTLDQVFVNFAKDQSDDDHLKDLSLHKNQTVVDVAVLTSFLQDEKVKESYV
We investigated cholesterol efflux from BHK cells after adding lipid free CS-6253 to media cell culture or to human EDTA-plasma which had been stored at -80°C. BHK overexpressing human ABCA1 were labeled with 2 μCi/ml ^3H-free cholesterol (Perkin Elmer, Norwalk, Connecticut) for 24 h. Afterward, BHK-ABCA1 were stimulated with 10 nmol/l mifepristone for 18–20 h (13). Cells were incubated with various doses of acceptor in media for 4 h at 37°C. Alternatively, plasma samples were first pre-incubated for 5 min at 37°C in plasma at mole ratios (10:1 or 1:1 relative to plasma apo A-I). To obtain the HDL fraction, apoB lipoproteins were precipitated from plasma by polyethylene glycol (PEG). […]
Fig 2 Effect of CS-6253 treatment on cholesterol efflux. […] Cholesterol efflux from either ABCA1 cells or control cells to apo A-I (closed circles), and CS-6253 (closed triangles) was determined at the indicated time points. […] ABCA1 was detected from THP-1 foam cells lysis at 4°C with lysis buffer containing 0.5% n-dodecylmaltoside in the presence of a protease inhibitor mixture followed by low speed centrifugation to remove cell debris. Protein concentration was determined by standard assay (Bio-Rad). […] After electrophoresis, ABCA1 was detected by an anti-ABCA1 antibody. […] E. Quantification of FC and CE in foam cells after interaction with CS-6253 and apoA-I. After a period of 4h cholesterol efflux, THP-1 foam cell lipids were extracted with hexane: isopropanol (3v/2v) as under ‘‘Material and Methods’. 3[H]-FC and 3[H]-CE were separated by TLC and located by exposure to iodine vapor, and were scraped off into liquid scintillating vials and assayed for radioactivity. […]

By Km is commonly meant the substrate concentration at which the rate is half of its maximum. Take apolipoprotein A-I [apo A-I]: the Km came to 0.15 ± 0.02 µM and the “Km, cholesterol efflux” value was 4.53 ± 0.67 µg/mL.

Source of the values: article PMC4514675, “Novel Apo E-Derived ABCA1 Agonist Peptide (CS-6253) Promotes Reverse Cholesterol Transport and Induces Formation of preβ-1 HDL In Vitro” (PLoS ONE, 2015).
